Test results taken from US6649364.

Columns and labels:
[1] = target: DNase I (Sigma, St. Louis, Mo.)
[2] = target: α-actin purified from rabbit skeletal muscle, globular (G-actin) form, P68135

B1: highly purified human recombinant ICE (p20/p10) (Merck) (protein)
chain 1: NPAMPTSSGSEGNVKLCSLEEAQRIWKQKSAEIYPIMDKSSRTRLALIICNEEFDSIPRRTGAEVDITGMTMLLQNLGYSVDVKKNLTASDMTTELEAFAHRPEHKTSDSTFLVFMSHGIREGICGKKHSEQVPDILQLNAIFNMLNTKNCPSLKDKPKVIIIQACRGDSPGVVWFKD
chain 2: AIKKAHIEKDFIAFCSSTPDNVSWRHPTMGSVFIGRLIEHMQEYACSCDVEEIFRKVRFSFEQPDGRAQMPTTERVTLTRCFYLFPGH
cleavage of DNase I and its endonuclease activity [1]: Control incubations without actin demonstrated that ICE neither cleaved DNase I nor affected its endonuclease activity | cleavage of purified actin (SDS-polyacrylamide gel electrophoresis) [2]: In the presence of ICE, actin was cleaved, resulting in a disappearance of the 42 kd band, and the appearance of bands at approximately 41 kd, 30 kd, and 14 kd
